Test results: patent publication US20160053277A1, “Compositions Having Dicamba Decarboxylase Activity and Methods of Use” (PIONEER HI-BRED INTERNATIONAL, INC., priority 2013, published 2016)

Legend:
[1] = Saturation mutagenesis of SEQ ID NO:109: dicamba decarboxylation activity of point mutants (carbon dioxide released); details: decarboxylation activity (carbon dioxide released) of point mutant compared with unmutated backbone protein; backbone SEQ ID NO: 109
[2] = Shuffled variant libraries: 14CO2 capturing assay in 384-well format
[3] = decarboxylation activity (carbon dioxide released) compared with unmutated backbone protein SEQ ID NO 133 (DDEC0201)
[4] = decarboxylation activity (carbon dioxide released) compared with unmutated backbone protein SEQ ID NO 509 (DDEC0810)

Molecule | Fold Activity [1] | Fold Activity [2, 3] | Fold Activity [2, 4]
133 (protein, Dicamba decarboxylase variant) MAQGKVALEEHFAIPETLQDSAGFVPGDYWKELQHRLLDIQDTRLKLMDAHGIETMILSLAAPAVQAIPDRRKAIEIARRANDFLAEECAKRPDRFLAFAALPLQDPDAATEELQRCVNDLGFVGALVNGFSQEGDGQTPLYYDLPQYRPFWGEVEKLDVPFYLHPRNPLPQDSRIYDGHPWLLGPTWAFAQETAVHALRLMASGLFDEHPRLNIILGHMGEGLPYMMYRIDHRIAWVKLPPRYPAKRRFMDYFNENFHITTSGNFRTQTLIDAILEIGADRILFSTDWPFENIDHAADWFNATSIAEADRVKIGRTNARRLFKLDGA | 1.3 | 1.0 | –
137 (protein, Dicamba decarboxylase variant) MAQGKVALEEHFAIPETLQDSAGFVPGDYWKELQHRLLDIQDTRLKLMDAHGIETMILSLAAPAVQAIPDRRKAIEIARRANDFLAEECAKRPDRFLAFAALPLQDPDAATEELQRCVNTLGFVGALVNGFSQEGDGQTPLYYDLPQYRPFWGEVEKLDVPFYLHPRNPLPQDSRIYDGHPWLLGPTWAFAQETAVHALRLMASGLFDEHPRLNIILGHMGEGLPYMMYRIDHRIAWVHEPPRYPAKRRFMDYFNENFHITTSGNFRTQTLIDAILEIGADRILFSTDWPFENIDHAADWFNATSIAEADRLKIGRTNARRLFKLDGA | 1.1 | 1.4 | –
134 (protein, Dicamba decarboxylase variant) MAQGKVALEEHFAIPETLQDSAGFVPGDYWKELQHRLLDIQDTRLKLMDAHGIETMILSLAAPAVQAIPDRRKAIEIARRANDMLAEECAKRPDRFLAFAALPLQDPDAATEELQRCVNDLGFVGALVNGFSQEGDGQTPLYYDLPQYRPFWGEVEKLDVPFYLHPRNPLPQDSRIYDGHPWLLGPTWAFAQETAVHALRLMASGLFDEHPRLNIILGHLGEGLPYMMYRIDHRIAWVHEPPRYPAKRRLMDYFNENFHITTSGNFRTQTLIDAILEIGADRILFSTDWPFENIDHAADWFNATSIAEADRVKIGRTNARRLFKLDGA | 1.5 | 1.1 | –
135 (protein, Dicamba decarboxylase variant) MAQGKVALEEHFAIPETLQDSAGFVPGDYWKELQHRLLDIQDTRLRLMDAHGIETMILSLAAPAVQAIPDRRKAIEIARRANDFLAEECAKRPDRFLAFAALPLQDPDAATEELQRCVNDLGFVGALVNGFSVEGDGQTPLYYDLPQYRPFWGEVEKLDVPFYLHPRNPLPQDSRIYDGHPWLLGPTWAFAQETAVHALRLMASGLFDEHPRLNIILGHLGEGLPYMMYRIDHRIAWVKLPPRYPAKRRFMDYFLENFHITTSGNFRTQTLIDAILEIGADRILFSTDWPFENIDHAADWFNATSIAEADRVKIGRTNARRLFKLDGD | 1.5 | 1.3 | –
136 (protein, Dicamba decarboxylase variant) MAQGKVALEEHFAIPETLQDSAGFVPGDYWKELQHRLLDIQDTRLKLMDAHGIETMILSLAAPAVQAIPDRRKAIEIARRANDFLAEECAKRPDRFLAFAALPLQDPDAATEELQRCVNTLGFVGALVNGFSVEGDGQTPLYYDLPQYRPFWGEVEKLDVPFYLHPRNPLPQDSRIYDGHPWLLGPTWAFAQETAVHALRLMASGLFDEHPRLNIILGHLGEGLPYMMYRIDHRIAWVHEPPRYPAKRRFMDYFNENFHITTSGNFRTQTLIDAILEIGADRILFSTDWPFENIDHAADWFNATSIAEADRVKIGRTNARRLFKLDGA | 1.2 | 1.4 | –
138 (protein, Dicamba decarboxylase variant) MAQGKVALEEHFAIPETLQDSAGFVPGDYWKELQHRLLDIQDTRLKLMDAHGIETMILSLAAPAVQAIPDRRKAIEIARRANDFLAEECAKRPDRFLAFAALPLQDPDAATEELQRCVNDLGFVGALVNGFSQEGDGQTPLYYDLPQYRPFWGEVEKLDVPFYLHPRNPLPQDSRIYDGHPWLLGPTWAFAQETAVHALRLMASGLFDEHPRLNIILGHMGEGLPYMMYRIDHRIAWVHEPPRYPAKRRFMDYFNENFHITTSGNFRTQTLIDAILEIGADRILFSTDWPFENIDHAADWFNATSIAEADRLKIGRTNARRLFKLDLD | 0.7 | 1.1 | –
553 (protein, Dicamba decarboxylase variant) MAQGLVALEEHFAIPETLQDAAGFVPGCYWKELQHRLLDIQDTRLKEMDKHEIGTMVLSLAAPAVQAIPDRRKAIEIARRANDFLAEEVAKRPDRFLAFAALPLQDVDAATEELQRCVADLGFVGAMVNGFSQEGDGQTPLYYDLPQYRPFWGEVEKLDVPFYLHPRNPLPQDSRIYDGHPWLLGPTWAFAQETAVHALRLMASGLFDEHPRLNIILGHMGEGLPYMMYRIDHRIAWVKAPPDYPAKRRFMDYFLENFWITTSGNFRTQTLIDAILEIGADRILFSTDWPFENIDHAADWFNATSIAEADRVKIGRTNARRLFKLDVR | – | – | 0.9
554 (protein, Dicamba decarboxylase variant) MAQGLVALEEHFAIPETLQDAAGFVPGDYWKELQHRLMDIQDTRLKEMDKHGIGTMVLSLAAPAVQGIVDRRKAIEIAKRANDFLAEEVAKRPDRFLAFAALPLQDVDAATEELQRCVADLGFVGAMVNGFSQEGDGQTPLYYDLPQYRPFWGEVEKLDVPFYLHPRNPLPQDARIYDGHPWLLGPTWAFAQETAVHALRLMASGLFDEHPRLNIILGHLGEGLPYMMYRIDHRIAWVKAPPDYPAKRRFMDYFLENFWITTSGNFRTQTLIDAILEIGADRILFSTDWPFENIDHAADWFAATSIAEADRVKIGRTNARRLFKLDVS | – | – | 0.9
555 (protein, Dicamba decarboxylase variant) MAQGKVALEEHFAIPETLQDAAGFVPGCYWKELQHRLMDIQDTRLKEMDKHEIGTMVLSLAAPAVQAIPDRRKAIEIARRANDFLAEEVAKRPDRFLAFAALPLQDVDAATEELQRCVNDLGFVGAMVNGFSQEGDGQTPLYYDLPQYRPFWGEVEKLDVPFYLHPRNPLPQDARIYDGHPWLLGPTWAFAQETAVHALRLMASGLFDEHPRLNIILGHMGEGLPYMMYRIDHRIAWVKAPPDYPAKRRFMDYFLENFHITTSGNFRTQTLIDAILEIGADRILFSTDWPFENIGHAADWFNATSIAEADRVKIGRTNARRLFKLDVS | – | – | 0.8
556 (protein, Dicamba decarboxylase variant) MAQGLVALEEHFAIPETLNDAAGFVPGCYWKELQHRLLDIQDTRLKEMDKHGIGTMILSLAAPAVQAIPDRRKAIELARRANDFLAEEVAKRPDRFLAFAALPMQDPDAATEELQRCVADLGFVGAMVNGFSQEGDGQTPLYYDLPQYRPFWKEVEKLDVPFYLHPRNPLPQDARIYDGHPWLLGPTWAFAQETAVHALRLMASGLFDEHPRLNIILGHMGEGLPYMMYRIDHRIAWVKAPPDYPAKRRFMDYFLENFHITTSGNFRTQTLIDAILEIGADRILFSTDWPFENIDHAADWFAATSIAEADRVKIGRTNARRLFKLDVR | – | – | 1.3
